Measurements taken from paper PMC7817190 (Proceedings of the National Academy of Sciences of the …, 2020).

T1: His-tagged human recombinant corneodesmosin (His-CDSN) (human, UniProt Q15517 33-529)
T1 sequence (looked up): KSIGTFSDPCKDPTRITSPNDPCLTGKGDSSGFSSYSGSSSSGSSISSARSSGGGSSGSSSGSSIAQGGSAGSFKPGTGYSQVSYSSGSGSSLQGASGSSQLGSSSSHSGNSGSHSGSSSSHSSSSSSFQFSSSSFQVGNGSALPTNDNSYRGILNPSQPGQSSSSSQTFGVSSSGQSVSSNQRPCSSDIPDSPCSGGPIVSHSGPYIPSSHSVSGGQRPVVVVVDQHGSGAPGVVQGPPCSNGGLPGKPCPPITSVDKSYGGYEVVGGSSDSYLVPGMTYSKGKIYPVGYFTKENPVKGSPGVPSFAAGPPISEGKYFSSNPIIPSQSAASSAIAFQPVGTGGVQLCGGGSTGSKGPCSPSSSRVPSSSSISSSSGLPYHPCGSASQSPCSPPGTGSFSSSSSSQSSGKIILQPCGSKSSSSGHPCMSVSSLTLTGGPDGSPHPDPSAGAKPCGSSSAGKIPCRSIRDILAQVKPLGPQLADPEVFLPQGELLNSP

B1: recombinant ClfB N2N3 subdomains with the sequence of the AD08 protein (rClfBCC1N2N3) (domain or fragment)
chain: AEPVVNAADAKGTNVNDKVTAKDFQLEKTTFDPNQSGNTFMAANFTVTGQVKSGDYFTAKLPDSVTGNGDVDYSNSNNTMPIADIVNDKNEVVAKATYDILTKTYTFVFTDYVNDKQNINGKFSLPLFTDRAKAPKSGTYDANINIADEMFNNKITYNYSSPIAGIDKPNGANISSQIIGVDTASGQNTYKQTVFVNPKQRVLGNTWVYIKGYQDKIEESSGKVSATDTKLRIFEVNDTSKLSDSYYADPNDSNLKEVTDQFKDKITYKYQNVASINFGDINKTYVVLVEGHYDKTGKNLKTQVIQENVDPATGKDYSIFGWNNENVVRYGGGSADGDSAVN

How the values were obtained:
[1] = target: His-tagged human recombinant corneodesmosin (His-CDSN) (human) (UniProt Q15517); test: SPR
[2] = target: T1, His-tagged human recombinant …; test: SPR

| Molecule | Kd [1] [µM] | Kd [2] [µM] |
| --- | --- | --- |
| recombinant FnBPB N2N3 subdomains with the sequence of the AD08 protein (rFnBPBCC1N2N3) (domain or fragment) | 49.1 |  |
| B1 |  | 44.6 |
